{"source": "patent US20160319321", "proteins": {"B1": {"name": "bovine Enterokinase light chain variant (C112A, L134K, I135K) (protein)", "chain": "IVGGSDSREGAWPWVVALYFDDQQVCGASLVSRDWLVSAAHCVYGRNMEPSKWKAVLGLHMASNLTSPQIETRLIDQIVINPHYNKRRKNNDIAMMHLEMKVNYTDYIQPIALPEENQVFPPGRICSIAGWGAKKYQGSTADVLQEADVPLLSNEKCQQQMPEYNITENMVCAGYEAGGVDSCQGDSGGPLMCQENNRWLLAGVTSFGYQCALPNRPGVYARVPRFTEWIQSFLH"}}, "key": {"[1]": {"target": "T1, DVEPGQPLYDEGDR-[Arg34]GLP-1(9-37)", "T1 chain": "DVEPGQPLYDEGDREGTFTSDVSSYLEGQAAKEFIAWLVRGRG"}, "[2]": {"target": "T2, DVKEGQPLYDDDDK-[Arg34]GLP-1(9-37)", "T2 chain": "T1 chain with E3K, P4E, E11D, G12D, R14K"}, "[3]": {"target": "T3, DVKPGEPLYDDDDK-[Arg34]GLP-1(9-37)", "T3 chain": "T1 chain with E3K, Q6E, E11D, G12D, R14K"}, "[4]": {"target": "T4, DVKPGEPLYDEGDR-[Arg34]GLP-1(9-37)", "T4 chain": "T1 chain with E3K, Q6E"}, "[5]": {"target": "T5, DVKPGQELYDEGDR-[Arg34]GLP-1(9-37)", "T5 chain": "T1 chain with E3K, P7E"}, "[6]": {"target": "T6, DVKPGQPLADDDDK-[Arg34]GLP-1(9-37)", "T6 chain": "T1 chain with E3K, Y9A, E11D, G12D, R14K"}, "[7]": {"target": "T7, DVKPGQPLADEGDR-[Arg34]GLP-1(9-37)", "T7 chain": "T1 chain with E3K, Y9A"}, "[8]": {"target": "T8, DVKPGQPLEDDDDK-[Arg34]GLP-1(9-37)", "T8 chain": "T1 chain with E3K, Y9E, E11D, G12D, R14K"}, "[9]": {"target": "T9, DVKPGQPLEDEGDR-[Arg34]GLP-1(9-37)", "T9 chain": "T1 chain with E3K, Y9E"}, "[10]": {"target": "T10, Lys(Dnp)-DAGDR-HAEGT-Lys(Abz)amide", "T10 chain": "KDAGDRHAEGTK"}, "[11]": {"target": "T11, Lys(Dnp)-DDGDR-EGTFT-Lys(Abz)amide", "T11 chain": "KDDGDREGTFTK"}, "[12]": {"target": "T12, Lys(Dnp)-DDGDR-HSQGT-Lys(Abz)amide", "T12 chain": "KDDGDRHSQGTK"}, "[13]": {"target": "T13, Lys(Dnp)-DEGDR-HAEGT-Lys(Abz)amide", "T13 chain": "KDEGDRHAEGTK"}, "[14]": {"target": "T14, Lys(Dnp)-DEGDR-HSQGT-Lys(Abz)amide", "T14 chain": "KDEGDRHSQGTK"}, "[15]": {"target": "T15, Lys(Dnp)-DGGDR-HAEGT-Lys(Abz)amide", "T15 chain": "KDGGDRHAEGTK"}, "[16]": {"target": "T16, Lys(Dnp)-DGGDR-HGEGT-Lys(Abz)amide", "T16 chain": "KDGGDRHGEGTK"}, "[17]": {"target": "T17, Lys(Dnp)-DHGDR-EGTFT-Lys(Abz)amide", "T17 chain": "KDHGDREGTFTK"}, "[18]": {"target": "T18, Lys(Dnp)-DHGDR-HGEGT-Lys(Abz)amide", "T18 chain": "KDHGDRHGEGTK"}, "[19]": {"target": "T19, Lys(Dnp)-DQGDR-HAEGT-Lys(Abz)amide", "T19 chain": "KDQGDRHAEGTK"}, "[20]": {"target": "T20, Lys(Dnp)-DQGDR-HGEGT-Lys(Abz)amide", "T20 chain": "KDQGDRHGEGTK"}, "[21]": {"target": "T21, Lys(Dnp)-DSGDR-EGTFT-Lys(Abz)amide", "T21 chain": "KDSGDREGTFTK"}, "[22]": {"target": "T22, Lys(Dnp)-DWGDR-EGTFT-Lys(Abz)amide", "T22 chain": "KDWGDREGTFTK"}, "[23]": {"target": "T23, Lys(Dnp)-DWGDR-HGEGT-Lys(Abz)amide", "T23 chain": "KDWGDRHGEGTK"}, "[24]": {"target": "T24, Lys(Dnp)-DYGDR-HAEGT-Lys(Abz)amide", "T24 chain": "KDYGDRHAEGTK"}, "[25]": {"target": "T25, Lys(Dnp)-EAGDR-EGTFT-Lys(Abz)amide", "T25 chain": "KEAGDREGTFTK"}, "[26]": {"target": "T26, Lys(Dnp)-EEGDR-EGTFT-Lys(Abz)amide", "T26 chain": "KEEGDREGTFTK"}, "[27]": {"target": "T27, Lys(Dnp)-EGGDR-HAEGT-Lys(Abz)amide", "T27 chain": "KEGGDRHAEGTK"}, "[28]": {"target": "T28, Lys(Dnp)-ELGDR-EGTFT-Lys(Abz)amide", "T28 chain": "KELGDREGTFTK"}, "[29]": {"target": "T29, Lys(Dnp)-ELGDR-HAEGT-Lys(Abz)amide", "T29 chain": "KELGDRHAEGTK"}, "[30]": {"target": "T30, Lys(Dnp)-ELGDR-HGEGT-Lys(Abz)amide", "T30 chain": "KELGDRHGEGTK"}, "[31]": {"target": "T31, Lys(Dnp)-EQGDR-EGTFT-Lys(Abz)amide", "T31 chain": "KEQGDREGTFTK"}, "[32]": {"target": "T32, Lys(Dnp)-EWGDR-HAEGT-Lys(Abz)amide", "T32 chain": "KEWGDRHAEGTK"}, "[33]": {"target": "T33, Lys(Dnp)-IMGDRHAEGT-Lys(Abz)amide", "T33 chain": "XIMGDRHAEGTX"}, "[34]": {"target": "T34, Lys(Dnp)-MDEGDR-HAEGT-Lys(Abz)amide", "T34 chain": "KMDEGDRHAEGTK"}, "[35]": {"target": "T35, Lys(Dnp)-NEDGDR-HAEGT-Lys(Abz)amide (not fully specified)", "T35 chain": "KNEDGDRHAEGTK"}, "[36]": {"target": "T36, Lys(Dnp)-PEGDR-HAEGT-Lys(Abz)amide", "T36 chain": "KPEGDRHAEGTK"}, "[37]": {"target": "T37, Lys(Dnp)-QDEGDR-HAEGT-Lys(Abz)amide", "T37 chain": "KQDEGDRHAEGTK"}, "[38]": {"target": "T38, Lys(Dnp)-SGGDRHAEGT-Lys(Abz)amide", "T38 chain": "KSGGDRHAEGTK"}, "[39]": {"target": "T39, Lys(Dnp)-WDEGDR-HAEGT-Lys(Abz)amide", "T39 chain": "KWDEGDRHAEGTK"}}, "note": "Where a chain is given by its changes, count along the chain named. In names and notes the source's numbering stands. Several values for one entry are separate records, joined by “and”; a condition that tells them apart may be missing. Identical values can stand only once."}
{"protein": "B1", "values": [{"measurement": "Activity (%)", "setting": "[1]", "value": 951, "unit": "%"}, {"measurement": "Activity (%)", "setting": "[2]", "value": 178, "unit": "%"}, {"measurement": "Activity (%)", "setting": "[3]", "value": 162, "unit": "%"}, {"measurement": "Activity (%)", "setting": "[4]", "value": 895, "unit": "%"}, {"measurement": "Activity (%)", "setting": "[5]", "value": 1040, "unit": "%"}, {"measurement": "Activity (%)", "setting": "[6]", "value": 134, "unit": "%"}, {"measurement": "Activity (%)", "setting": "[7]", "value": 476, "unit": "%"}, {"measurement": "Activity (%)", "setting": "[8]", "value": 100, "unit": "%"}, {"measurement": "Activity (%)", "setting": "[9]", "value": 653, "unit": "%"}, {"measurement": "Activity (%)", "setting": "[10]", "value": 496, "unit": "%"}, {"measurement": "Activity (%)", "setting": "[11]", "value": 428, "unit": "%"}, {"measurement": "Activity (%)", "setting": "[12]", "value": 310, "unit": "%"}, {"measurement": "Activity (%)", "setting": "[13]", "value": "1100% and 942%"}, {"measurement": "Activity (%)", "setting": "[14]", "value": 621, "unit": "%"}, {"measurement": "Activity (%)", "setting": "[15]", "value": 431, "unit": "%"}, {"measurement": "Activity (%)", "setting": "[16]", "value": 301, "unit": "%"}, {"measurement": "Activity (%)", "setting": "[17]", "value": 398, "unit": "%"}, {"measurement": "Activity (%)", "setting": "[18]", "value": 526, "unit": "%"}, {"measurement": "Activity (%)", "setting": "[19]", "value": 770, "unit": "%"}, {"measurement": "Activity (%)", "setting": "[20]", "value": 467, "unit": "%"}, {"measurement": "Activity (%)", "setting": "[21]", "value": 342, "unit": "%"}, {"measurement": "Activity (%)", "setting": "[22]", "value": 410, "unit": "%"}, {"measurement": "Activity (%)", "setting": "[23]", "value": 338, "unit": "%"}, {"measurement": "Activity (%)", "setting": "[24]", "value": 505, "unit": "%"}, {"measurement": "Activity (%)", "setting": "[25]", "value": 355, "unit": "%"}, {"measurement": "Activity (%)", "setting": "[26]", "value": 580, "unit": "%"}, {"measurement": "Activity (%)", "setting": "[27]", "value": 586, "unit": "%"}, {"measurement": "Activity (%)", "setting": "[28]", "value": 396, "unit": "%"}, {"measurement": "Activity (%)", "setting": "[29]", "value": 659, "unit": "%"}, {"measurement": "Activity (%)", "setting": "[30]", "value": 502, "unit": "%"}, {"measurement": "Activity (%)", "setting": "[31]", "value": 442, "unit": "%"}, {"measurement": "Activity (%)", "setting": "[32]", "value": 456, "unit": "%"}, {"measurement": "Activity (%)", "setting": "[33]", "value": 125, "unit": "%"}, {"measurement": "Activity (%)", "setting": "[34]", "value": 209, "unit": "%"}, {"measurement": "Activity (%)", "setting": "[35]", "value": 114, "unit": "%"}, {"measurement": "Activity (%)", "setting": "[36]", "value": 441, "unit": "%"}, {"measurement": "Activity (%)", "setting": "[37]", "value": 141, "unit": "%"}, {"measurement": "Activity (%)", "setting": "[38]", "value": 243, "unit": "%"}, {"measurement": "Activity (%)", "setting": "[39]", "value": 181, "unit": "%"}]}
